According to patent US20240270846A1 (published 2024):
“And” between values parts separate entries of the source, which are not always exact repeats. Equal values may be shown once.

T1: biotinylated CD3 epsilon epitope peptide (UniProt P07766 22-48, biotinylated)
T1 chain: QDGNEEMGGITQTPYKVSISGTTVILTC


Experiments:
[1] = biological target: T1, biotinylated CD3 epsilon epitope peptide; assay: SPR (Biacore); biotinylated CD3 epsilon epitope peptide on chip via streptavidin, antibody as analyte
[2] = biological target: T2, biotin-labeled human CD137 fused to human IgG1 Fc fragment (human, biotin-labeled); assay: bead ELISA, IgG on biotin-human CD137-Fc; signal with free CD3e 62.5 pmol against free Fc 62.5 pmol
T2 construct: also called human CD137-Fc; biotin-human CD137-Fc

[3] = biological target: T2, biotin-labeled human CD137 fused to …; assay: bead ELISA (chemiluminescence), IgG on biotin-human CD137-Fc on streptavidin beads; competitor free CD3 epsilon 62.5 pmol
[4] = biological target: T2, biotin-labeled human CD137 fused to …; assay: bead ELISA (chemiluminescence), IgG on biotin-human CD137-Fc on streptavidin beads; control competitor free human Fc 62.5 pmol

Kd [1] | Signal decrease [2] [%] | ELISA signal with Free CD3e 62.5 pmol [3] | ELISA signal with Free Fc 62.5 pmol [4] | Binder
43.9 nM and 35.4 nM |  |  |  | CE115HA000 V11L/D72A/L78I/D101Q with GGSGGSGGS inserted between Kabat positions 99 and 100, one-arm antibody (antibody, V domains shown) VH: QVQLVESGGGLVQPGRSLRLSCAASGFTFSNAWMHWVRQAPGKGLEWVAQIKAKSNNYATYYAESVKGRFTISRADSKNSIYLQMNSLKTEDTAVYYCRYVHYGAGGSGGSGGSYYGVQAWGQGTTVTVSS VL: DIVMTQSPLSLPVTPGEPASISCRSSQSLVHSNRNTYLHWYQQKPGQAPRLLIYKVSNRFSGVPDRFSGSGSGTDFTLKISRVEAEDVGVYYCGQGTQVPYTFGQGTKLEIKR
110 nM |  |  |  | CE115HA000 (unaltered), one-arm antibody with GLS3000 (antibody, human IgG1, kappa, L234A L235A, N297A) heavy: QVQLVESGGGVVQPGRSLRLSCAASGFTFSNAWMHWVRQAPGKGLEWVAQIKAKSNNYATYYAESVKGRFTISRDDSKNSLYLQMNSLKTEDTAVYYCRYVHYGAYYGVDAWGQGTTVTVSSASTKGPSVFPLAPSSKSTSGGTAALGCLVKDYFPEPVTVSWNSGALTSGVHTFPAVLQSSGLYSLSSVVTVPSSSLGTQTYICNVNHKPSNTKVDKKVEPKSCDKTHTCPPCPAPEAAGGPSVFLFPPKPKDTLMISRTPEVTCVVVDVSHEDPEVKFNWYVDGVEVHNAKTKPREEQYASTYRVVSVLTVLHQDWLNGKEYKCKVSNKALPAPIEKTISKAKGQPREPQVYTLPPSRCELTKNQVSLSCAVKGFYPSDIAVEWESNGQPENNYKTTPPVLDSDGSFFLVSKLTVDKSRWQQGNVFSCSVMHEALHNHYTQKSLSLSPDYKDDDDK EPKSSDKTHTCPPCPAPELLGGPSVFLFPPKPKDTLMISRTPEVTCVVVDVSHEDPEVKFNWYVDGVEVHNAKTKPREEQYNSTYRVVSVLTVLHQDWLNGKEYKCKVSNKALPAPIEKTISKAKGQPREPQVCTLPPSRDELTKNQVSLWCLVKGFYPSDIAVEWESNGQPENNYKTTPPVLDSDGSFFLYSKLTVDKSRWQQGNVFSCSVMHEALHNRYTQKSLSLSP light: DIVMTQSPLSLPVTPGEPASISCRSSQSLVHSNRNTYLHWYQQKPGQAPRLLIYKVSNRFSGVPDRFSGSGSGTDFTLKISRVEAEDVGVYYCGQGTQVPYTFGQGTKLEIKRTVAAPSVFIFPPSDEQLKSGTASVVCLLNNFYPREAKVQWKVDNALQSGNSQESVTEQDSKDSTYSLSSTLTLSKADYEKHKVYACEVTHQGLSSPVTKSFNRGEC
 | 96.7 | 1540 | 46800 | dBBDu_H115/L016 (antibody, human IgG1, V domains shown, Full length IgG (human IgG1 CH1-Fc heavy chain, kappa light chain)) VH: QVQLVESGGGLVQPGRSLRLSCAASGFTFSNAWMHWVRQAPGKGLEWVAQIKDKANSYNTYYAPSVKGRFTISRDDSKNSIYLQMNSLKTEDTAVYYCRYVHYGSSYGFLFAGYGVDAWGQGTTVTVSS VL: DIVMTQSPMSLPVTPGEPASISCQSSESLLHANRNTYLHWYQQKPGQAPRLLIYKVSNRFNGVPDRFSGSGSGTDFTLKISRVEAEDVGVYYCAQGTANPYTFGQGTKLEIK
 | 98.1 | 1450 | 76900 | dBBDu_H115/L008 (antibody, V domains shown, Full length IgG (human IgG1 CH1-Fc heavy chain, kappa light chain); also called Du115/DUL008) VH: QVQLVESGGGLVQPGRSLRLSCAASGFTFSNAWMHWVRQAPGKGLEWVAQIKDKANSYNTYYAPSVKGRFTISRDDSKNSIYLQMNSLKTEDTAVYYCRYVHYGSSYGFLFAGYGVDAWGQGTTVTVSS VL: DIVMTQSPLSLPVTPGEPASISCQSSEELLHANRKTYLHWYQQKPGQAPRLLIYKVQNRFSGVPDRFSGSGSGTDFTLKISRVEAEDVGVYYCAQGTATPFTFGQGTKLEIK

The next lines start with the binder.

Binder | Kd [1] | Signal decrease [2] [%] | ELISA signal with Free CD3e 62.5 pmol [3] | ELISA signal with Free Fc 62.5 pmol [4]
CE115HA000 V11L/D72A/L78I/D101Q with GGSGGS inserted between Kabat positions 99 and 100, one-arm antibody (antibody, V domains shown) VH: QVQLVESGGGLVQPGRSLRLSCAASGFTFSNAWMHWVRQAPGKGLEWVAQIKAKSNNYATYYAESVKGRFTISRADSKNSIYLQMNSLKTEDTAVYYCRYVHYGAGGSGGSYYGVQAWGQGTTVTVSS VL: DIVMTQSPLSLPVTPGEPASISCRSSQSLVHSNRNTYLHWYQQKPGQAPRLLIYKVSNRFSGVPDRFSGSGSGTDFTLKISRVEAEDVGVYYCGQGTQVPYTFGQGTKLEIKR | 34.6 nM and 31.1 nM |  |  | 
CE115HA000 V11L/D72A/L78I/D101Q with GGSGGGS inserted between Kabat positions 99 and 100, one-arm antibody (antibody, V domains shown) VH: QVQLVESGGGLVQPGRSLRLSCAASGFTFSNAWMHWVRQAPGKGLEWVAQIKAKSNNYATYYAESVKGRFTISRADSKNSIYLQMNSLKTEDTAVYYCRYVHYGAGGSGGGSYYGVQAWGQGTTVTVSS VL: DIVMTQSPLSLPVTPGEPASISCRSSQSLVHSNRNTYLHWYQQKPGQAPRLLIYKVSNRFSGVPDRFSGSGSGTDFTLKISRVEAEDVGVYYCGQGTQVPYTFGQGTKLEIKR | 43.5 nM and 34.3 nM |  |  | 
CE115HA000 V11L/D72A/L78I/D101Q without insertion, one-arm antibody (antibody, human IgG1, kappa, L234A L235A, N297A, name in Kabat numbering, one-arm antibody; also called No insertion) heavy: QVQLVESGGGLVQPGRSLRLSCAASGFTFSNAWMHWVRQAPGKGLEWVAQIKAKSNNYATYYAESVKGRFTISRADSKNSIYLQMNSLKTEDTAVYYCRYVHYGAYYGVQAWGQGTTVTVSSASTKGPSVFPLAPSSKSTSGGTAALGCLVKDYFPEPVTVSWNSGALTSGVHTFPAVLQSSGLYSLSSVVTVPSSSLGTQTYICNVNHKPSNTKVDKKVEPKSCDKTHTCPPCPAPEAAGGPSVFLFPPKPKDTLMISRTPEVTCVVVDVSHEDPEVKFNWYVDGVEVHNAKTKPREEQYASTYRVVSVLTVLHQDWLNGKEYKCKVSNKALPAPIEKTISKAKGQPREPQVYTLPPSRCELTKNQVSLSCAVKGFYPSDIAVEWESNGQPENNYKTTPPVLDSDGSFFLVSKLTVDKSRWQQGNVFSCSVMHEALHNHYTQKSLSLSPDYKDDDDK EPKSSDKTHTCPPCPAPELLGGPSVFLFPPKPKDTLMISRTPEVTCVVVDVSHEDPEVKFNWYVDGVEVHNAKTKPREEQYNSTYRVVSVLTVLHQDWLNGKEYKCKVSNKALPAPIEKTISKAKGQPREPQVCTLPPSRDELTKNQVSLWCLVKGFYPSDIAVEWESNGQPENNYKTTPPVLDSDGSFFLYSKLTVDKSRWQQGNVFSCSVMHEALHNRYTQKSLSLSP light: DIVMTQSPLSLPVTPGEPASISCRSSQSLVHSNRNTYLHWYQQKPGQAPRLLIYKVSNRFSGVPDRFSGSGSGTDFTLKISRVEAEDVGVYYCGQGTQVPYTFGQGTKLEIKRTVAAPSVFIFPPSDEQLKSGTASVVCLLNNFYPREAKVQWKVDNALQSGNSQESVTEQDSKDSTYSLSSTLTLSKADYEKHKVYACEVTHQGLSSPVTKSFNRGEC | 6.96 nM |  |  | 
dBBDu_H115/L039 (antibody, human IgG1, V domains shown, Full length IgG (human IgG1 CH1-Fc heavy chain, kappa light chain)) VH: QVQLVESGGGLVQPGRSLRLSCAASGFTFSNAWMHWVRQAPGKGLEWVAQIKDKANSYNTYYAPSVKGRFTISRDDSKNSIYLQMNSLKTEDTAVYYCRYVHYGSSYGFLFAGYGVDAWGQGTTVTVSS VL: DIVMTQSPLSLPVTPGEPASISCTSSQSLLHANRNTYLHWYQQKPGQAPRLLIYKVSNRFSGVPDRFSGSGSGTDFTLKISRVEAEDVGVYYCAQGTSAPFTFGQGTKLEIK |  | 97.2 | 1550 | 55800
dBBDu_H115/L035 (antibody, human IgG1, V domains shown, Full length IgG (human IgG1 CH1-Fc heavy chain, kappa light chain)) VH: QVQLVESGGGLVQPGRSLRLSCAASGFTFSNAWMHWVRQAPGKGLEWVAQIKDKANSYNTYYAPSVKGRFTISRDDSKNSIYLQMNSLKTEDTAVYYCRYVHYGSSYGFLFAGYGVDAWGQGTTVTVSS VL: DIVMTQSPLSLPVTPGEPASISCAASESLLHTNRNTYLHWYQQKPGQAPRLLIYKVSNRFSGVPDRFSGSGSGTDFTLKISRVEAEDVGVYYCAQGTQSPFTFGQGTKLEIK |  | 97.9 | 1470 | 70600
dBBDu_H115/L014 (antibody, human IgG1, V domains shown, Full length IgG (human IgG1 CH1-Fc heavy chain, kappa light chain)) VH: QVQLVESGGGLVQPGRSLRLSCAASGFTFSNAWMHWVRQAPGKGLEWVAQIKDKANSYNTYYAPSVKGRFTISRDDSKNSIYLQMNSLKTEDTAVYYCRYVHYGSSYGFLFAGYGVDAWGQGTTVTVSS VL: DIVMTQSPLSLPVTPGEPASISCTSSQSLLHQNRNTYLHWYQQKPGQAPRLLIYKVSNRFNGVPDRFSGSGSGTDFTLKISRVEAEDVGVYYCAQGTANPFTFGQGTKLEIK |  | 97.9 | 1510 | 72100
